Assay results from publication PMC3746776 (Journal of molecular biology, 2013).

B1: bacteriophage T4 gp14, purified (natural protein)
chain: MATYDKNLFAKLENRTGYSQTNETEILNPYVNFNHYKNSQILADVLVAESIQMRGVECYYVPREYVSPDLIFGEDLKNKFTKAWKFAAYLNSFEGYEGAKSFFSNFGMQVQDEVTLSINPNLFKHQVNGKEPKEGDLIYFPMDNSLFEINWVEPYDPFYQLGQNAIRKITAGKFIYSGEEINPVLQKNEGINIPEFSELELNAVRNLNGIHDINIDQYAEVDQINSEAKEYVEPYVVVNNRGKSFESSPFDNDFMD
B2: gp15 C-terminal truncation mutant (residues 1-261) (domain or fragment, bacteriophage T4, UniProt P11112 1-261, looked up)
chain: MFGYFYNSSFRRYATLMGDLFSNIQIKRQLESGDKFIRVPITYASKEHFMMKLNKWTSINSQEDVAKVETILPRINLHLVDFSYNAPFKTNILNQNLLQKGATSVVSQYNPSPIKMIYELSIFTRYEDDMFQIVEQILPYFQPHFNTTMYEQFGNDIPFKRDIKIVLMSAAIDEAIDGDNLSRRRIEWSLTFEVNGWMYPPVDDAEGLIRTTYTDFHANTRDLPDGEGVFESVDSEVVPRDIDPEDWDGTVKQTFTSNVNR

Key:
[1] = target: purified phage T4 heads (bacteriophage T4) (UniProt P13334); test: co-sedimentation
crystal structure = target: the molecule itself; test: crystal structure

Sequence of purified phage T4 heads (bacteriophage T4) (P13334 whole entry, looked up): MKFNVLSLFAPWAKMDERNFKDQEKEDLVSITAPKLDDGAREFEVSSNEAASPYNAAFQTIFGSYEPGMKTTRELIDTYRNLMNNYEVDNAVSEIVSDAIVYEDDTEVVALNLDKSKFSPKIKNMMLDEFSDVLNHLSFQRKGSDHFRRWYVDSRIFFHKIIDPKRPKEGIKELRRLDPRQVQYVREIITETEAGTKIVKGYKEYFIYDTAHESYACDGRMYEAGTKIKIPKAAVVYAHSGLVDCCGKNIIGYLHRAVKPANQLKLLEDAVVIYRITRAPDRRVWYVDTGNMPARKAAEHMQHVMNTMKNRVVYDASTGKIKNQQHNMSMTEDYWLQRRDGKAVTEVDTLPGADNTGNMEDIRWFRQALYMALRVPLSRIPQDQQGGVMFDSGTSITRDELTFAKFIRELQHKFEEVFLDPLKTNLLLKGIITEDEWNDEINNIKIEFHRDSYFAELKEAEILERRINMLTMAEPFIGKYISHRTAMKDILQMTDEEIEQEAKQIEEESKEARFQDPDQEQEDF

| Binder | stoichiometry N (copies per head) [1] | stoichiometry N (crystal structure) |
| --- | --- | --- |
| B1 | 6 |  |
| B2 |  | 6 |
